Tested on: RR-Src peptide

| Substance | KM (mM) for protein substrate RR-Src, ATP saturated | KM (mM) for protein substrate RR-Src, N^6-(cyclopentyl)ATP saturated |
| --- | --- | --- |
| GST-XD4 (glutathione S-transferase fusion of the XD4 fragment of v-Src, wild-type catalytic domain) | 2.6 mM | – |
| GST-XD4(V323A, I338A) | 3.1 mM | 2.1 mM |

Source: patent US20030073218
